Data as given in article PMC9482650, “Quantitative fragmentomics allow affinity mapping of interactomes” (Nature Communications, 2022).

Columns and labels:
Experiment in all cases: holdup assay
Set-up in all cases: key: below the threshold = too weak to quantify, mostly under pKd 3.1 to 4
[1] = biological target: FRMPD3, Q5JV73
[2] = biological target: T1, TX1BP3, O14907
T1 sequence (O14907 10-122, limits assumed, looked up): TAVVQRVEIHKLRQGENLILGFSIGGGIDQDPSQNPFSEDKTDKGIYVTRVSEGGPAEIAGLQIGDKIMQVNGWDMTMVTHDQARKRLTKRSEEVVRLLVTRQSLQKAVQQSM

[3] = biological target: GRASP, Q7Z6J2
Sequence of GRASP, Q7Z6J2 (Q7Z6J2 96-193): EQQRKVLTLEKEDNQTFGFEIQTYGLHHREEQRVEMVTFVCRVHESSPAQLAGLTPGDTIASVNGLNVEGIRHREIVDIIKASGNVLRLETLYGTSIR

[4] = biological target: T2, PDZRN3_1, Q9UPQ7
T2 sequence (Q9UPQ7 244-349, limits assumed, looked up): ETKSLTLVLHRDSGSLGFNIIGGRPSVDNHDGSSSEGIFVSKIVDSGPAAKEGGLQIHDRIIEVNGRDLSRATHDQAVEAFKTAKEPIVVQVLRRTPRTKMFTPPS

[5] = biological target: T3, RAPGEF6, Q8TEU7
T3 sequence (Q8TEU7 525-625, limits assumed, looked up): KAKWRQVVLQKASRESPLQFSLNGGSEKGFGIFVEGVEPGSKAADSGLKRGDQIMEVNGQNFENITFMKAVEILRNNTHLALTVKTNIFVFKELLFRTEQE

[6] = biological target: T4, PDZD7_3, Q9H5P4
T4 sequence (Q9H5P4 857-944, limits assumed, looked up): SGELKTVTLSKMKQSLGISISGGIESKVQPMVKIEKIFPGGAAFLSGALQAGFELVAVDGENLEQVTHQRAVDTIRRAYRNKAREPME

[7] = biological target: LNX1_3, Q8TBB1
Sequence of LNX1_3, Q8TBB1 (Q8TBB1 500-596): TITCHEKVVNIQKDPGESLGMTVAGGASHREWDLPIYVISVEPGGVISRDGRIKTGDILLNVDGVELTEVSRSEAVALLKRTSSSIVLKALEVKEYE

[8] = biological target: T5, LIN7B, Q9HAP6
T5 sequence (Q9HAP6 88-185, limits assumed, looked up): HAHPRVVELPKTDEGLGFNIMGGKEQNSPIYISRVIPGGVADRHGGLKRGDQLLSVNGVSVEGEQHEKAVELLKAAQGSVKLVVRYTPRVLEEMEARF

[9] = biological target: T6, DLG3_2, Q92796
T6 sequence (Q92796 221-321, limits assumed, looked up): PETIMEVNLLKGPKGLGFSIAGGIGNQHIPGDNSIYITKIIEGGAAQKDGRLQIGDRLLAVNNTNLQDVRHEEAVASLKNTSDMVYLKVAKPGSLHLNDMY

[10] = biological target: GRIP2_4, Q9C0E4
Sequence of GRIP2_4, Q9C0E4 (Q9C0E4 446-548): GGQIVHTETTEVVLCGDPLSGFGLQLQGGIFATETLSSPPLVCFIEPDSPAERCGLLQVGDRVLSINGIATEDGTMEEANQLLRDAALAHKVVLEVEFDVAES

[11] = biological target: LNX1_1, Q8TBB1
Sequence of LNX1_1, Q8TBB1 (Q8TBB1 261-371): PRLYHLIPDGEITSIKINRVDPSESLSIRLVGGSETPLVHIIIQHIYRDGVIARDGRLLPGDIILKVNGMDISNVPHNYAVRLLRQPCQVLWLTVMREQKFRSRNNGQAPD

[12] = biological target: T7, GRIP1_5, Q9Y3R0
T7 sequence (Q9Y3R0 568-668, limits assumed, looked up): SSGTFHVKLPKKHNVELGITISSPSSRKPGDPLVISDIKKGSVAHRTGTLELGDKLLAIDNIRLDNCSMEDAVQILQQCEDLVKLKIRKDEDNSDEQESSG

[13] = biological target: GRIP2_5, Q9C0E4
Sequence of GRIP2_5, Q9C0E4 (Q9C0E4 544-642): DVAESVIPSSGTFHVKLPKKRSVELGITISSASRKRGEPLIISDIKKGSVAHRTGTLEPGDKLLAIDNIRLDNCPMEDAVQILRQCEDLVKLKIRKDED

[14] = biological target: T8, SNTG2, Q9NY99
T8 sequence (Q9NY99 68-166, limits assumed, looked up): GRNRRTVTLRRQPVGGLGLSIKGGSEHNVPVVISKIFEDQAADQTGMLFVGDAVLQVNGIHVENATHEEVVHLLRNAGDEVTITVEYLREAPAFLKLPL

[15] = biological target: T9, PARD3B_1, Q8TEW8
T9 sequence (Q8TEW8 196-299, limits assumed, looked up): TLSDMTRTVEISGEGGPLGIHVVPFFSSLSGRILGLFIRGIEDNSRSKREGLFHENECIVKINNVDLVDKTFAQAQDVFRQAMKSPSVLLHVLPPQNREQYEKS

[16] = biological target: T10, GRIP1_3, Q9Y3R0
T10 sequence (Q9Y3R0 247-346, limits assumed, looked up): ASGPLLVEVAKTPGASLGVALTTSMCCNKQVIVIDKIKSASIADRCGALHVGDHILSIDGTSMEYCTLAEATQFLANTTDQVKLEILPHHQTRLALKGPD

[17] = biological target: T11, DVL3, Q92997
T11 sequence (Q92997 244-331, limits assumed, looked up): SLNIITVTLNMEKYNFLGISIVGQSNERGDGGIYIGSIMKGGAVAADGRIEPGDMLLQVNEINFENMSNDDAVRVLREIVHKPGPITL

[18] = biological target: T12, APBA1_2, Q02410
T12 sequence (Q02410 742-832, limits assumed, looked up): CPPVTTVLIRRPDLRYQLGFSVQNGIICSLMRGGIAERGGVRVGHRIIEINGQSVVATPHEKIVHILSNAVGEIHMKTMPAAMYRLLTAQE

[19] = biological target: T13, APBA1_1, Q02410
T13 sequence (Q02410 651-752, limits assumed, looked up): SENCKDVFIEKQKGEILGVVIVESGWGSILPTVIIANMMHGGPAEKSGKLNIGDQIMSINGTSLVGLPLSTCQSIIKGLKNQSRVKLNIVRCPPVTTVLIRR

[20] = biological target: PARD3_3, Q8TEW0
Sequence of PARD3_3, Q8TEW0 (Q8TEW0 582-685): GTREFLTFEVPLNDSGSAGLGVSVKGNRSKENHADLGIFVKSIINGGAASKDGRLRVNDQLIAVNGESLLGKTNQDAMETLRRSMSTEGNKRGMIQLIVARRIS

[21] = biological target: T14, ARHGEF11, O15085
T14 sequence (O15085 42-136, limits assumed, looked up): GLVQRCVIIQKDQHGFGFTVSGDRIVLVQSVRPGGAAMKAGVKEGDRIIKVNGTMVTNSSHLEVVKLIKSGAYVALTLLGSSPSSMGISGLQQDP

[22] = biological target: Inadl_4, Q8NI35
Sequence of Inadl_4, Q8NI35 (Q8NI35 547-651): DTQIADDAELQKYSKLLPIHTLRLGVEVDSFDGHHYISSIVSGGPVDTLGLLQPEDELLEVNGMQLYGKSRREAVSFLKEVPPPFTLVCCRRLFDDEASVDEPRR

[23] = biological target: SCRIB_2, Q14160
Sequence of SCRIB_2, Q14160 (Q14160 857-960): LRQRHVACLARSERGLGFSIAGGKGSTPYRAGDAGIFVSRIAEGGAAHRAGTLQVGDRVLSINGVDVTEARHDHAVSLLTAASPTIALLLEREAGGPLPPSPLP

[24] = plain residues with an end cap or a label only (N-terminal biotin on a linker: ado-ado)
[25] = plain residues with an end cap or a label only (N-terminal biotin on a linker: ttds)
[26] = plain residues with an end cap or a label only (N-terminal biotin on a linker: ahx)

Sequence of FRMPD3, Q5JV73 (Q5JV73 12-100): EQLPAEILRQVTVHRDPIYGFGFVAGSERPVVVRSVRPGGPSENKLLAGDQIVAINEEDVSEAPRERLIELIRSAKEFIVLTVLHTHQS

SQDPKKPSRV [CBY2, Q8NA61] was tested, and the pKd [1, 24] was “below the threshold”, the pKd [2, 24] was “below the threshold” and the pKd [3, 24] was “below the threshold”. The pKd [4, 24] was 3.56, the pKd [5, 24] was “below the threshold” and the pKd [6, 24] was “below the threshold”. For the same binder, the pKd [7, 24] was “below the threshold”, the pKd [8, 24] was “below the threshold” and the pKd [9, 24] was “below the threshold”. The pKd [10, 24] was “below the threshold”, the pKd [11, 24] was 3.5 and the pKd [12, 24] was “below the threshold”. For the same binder, the pKd [13, 24] was “below the threshold”, the pKd [14, 24] was “below the threshold” and the pKd [15, 24] was “below the threshold”. For the same binder, the pKd [16, 24] was “below the threshold”, the pKd [17, 24] was “below the threshold” and the pKd [18, 24] was 3.97. The pKd [19, 24] was “below the threshold”, the pKd [20, 24] was “below the threshold” and the pKd [21, 24] was “below the threshold”. For the same binder, the pKd [22, 24] was “below the threshold” and the pKd [23, 24] was “below the threshold”.

For PSRDRKETSI [RALBP1, Q15311], the pKd [1, 25] was “below the threshold”, the pKd [2, 25] was 4.23 and the pKd [3, 25] was “below the threshold”. For the same binder, the pKd [4, 25] was 4.37, the pKd [5, 25] was “below the threshold” and the pKd [6, 25] was 4.89. For the same binder, the pKd [7, 25] was “below the threshold”, the pKd [8, 25] was 3.49 and the pKd [9, 25] was 4.35. For the same binder, the pKd [10, 25] was “below the threshold”, the pKd [11, 25] was “below the threshold” and the pKd [12, 25] was “below the threshold”. The pKd [13, 25] was “below the threshold”, the pKd [14, 25] was 4.32 and the pKd [15, 25] was 3.76. The pKd [16, 25] was “below the threshold”, the pKd [17, 25] was “below the threshold” and the pKd [18, 25] was 3.32. The pKd [19, 25] was “below the threshold”, the pKd [20, 25] was “below the threshold” and the pKd [21, 25] was “below the threshold”. The pKd [22, 25] was “below the threshold” and the pKd [23, 25] was 3.75.

VNENQKEYFF [CNTNAP4, Q9C0A0] was tested, and the pKd [1, 26] was 4.66, the pKd [2, 26] was “below the threshold” and the pKd [3, 26] was “below the threshold”. For the same binder, the pKd [4, 26] was “below the threshold”, the pKd [5, 26] was “below the threshold” and the pKd [6, 26] was “below the threshold”. For the same binder, the pKd [7, 26] was “below the threshold”, the pKd [8, 26] was “below the threshold” and the pKd [9, 26] was “below the threshold”. For the same binder, the pKd [10, 26] was “below the threshold”, the pKd [11, 26] was “below the threshold” and the pKd [12, 26] was “below the threshold”. The pKd [13, 26] was “below the threshold”, the pKd [14, 26] was “below the threshold” and the pKd [15, 26] was 4.57. The pKd [16, 26] was “below the threshold”, the pKd [17, 26] was 4.9 and the pKd [18, 26] was 4.47. The pKd [19, 26] was “below the threshold”, the pKd [20, 26] was 5.32 and the pKd [21, 26] was “below the threshold”. For the same binder, the pKd [22, 26] was “below the threshold” and the pKd [23, 26] was “below the threshold”.

For HSATSVHTSV [MTMR1, Q13613], the pKd [1, 26] was “below the threshold”, the pKd [2, 26] was 3.8 and the pKd [3, 26] was 4. The pKd [4, 26] was “below the threshold”, the pKd [5, 26] was “below the threshold” and the pKd [6, 26] was 3.87. The pKd [7, 26] was “below the threshold”, the pKd [8, 26] was “below the threshold” and the pKd [9, 26] was 4.72. The pKd [10, 26] was “below the threshold”, the pKd [11, 26] was “below the threshold” and the pKd [12, 26] was “below the threshold”. The pKd [13, 26] was “below the threshold”, the pKd [14, 26] was 3.5 and the pKd [15, 26] was “below the threshold”. The pKd [16, 26] was “below the threshold”, the pKd [17, 26] was “below the threshold” and the pKd [18, 26] was “below the threshold”. For the same binder, the pKd [19, 26] was “below the threshold”, the pKd [20, 26] was 3.73 and the pKd [21, 26] was 3.75. The pKd [22, 26] was “below the threshold” and the pKd [23, 26] was 3.95.
